Measurements as given in patent publication US20120328616A1 (Amgen, published 2012).

Key:
[1] = target: T1, huBeta_Klotho (1-301, 509-743, 967-1044) (muBeta KLOTHO 302-506, 742-964) (human; murine, UniProt Q86Z14 1-1044); test: flow cytometry, transfected HEK-293T
T1 construct: also called Chimera 14; Construct 14
T1 chain: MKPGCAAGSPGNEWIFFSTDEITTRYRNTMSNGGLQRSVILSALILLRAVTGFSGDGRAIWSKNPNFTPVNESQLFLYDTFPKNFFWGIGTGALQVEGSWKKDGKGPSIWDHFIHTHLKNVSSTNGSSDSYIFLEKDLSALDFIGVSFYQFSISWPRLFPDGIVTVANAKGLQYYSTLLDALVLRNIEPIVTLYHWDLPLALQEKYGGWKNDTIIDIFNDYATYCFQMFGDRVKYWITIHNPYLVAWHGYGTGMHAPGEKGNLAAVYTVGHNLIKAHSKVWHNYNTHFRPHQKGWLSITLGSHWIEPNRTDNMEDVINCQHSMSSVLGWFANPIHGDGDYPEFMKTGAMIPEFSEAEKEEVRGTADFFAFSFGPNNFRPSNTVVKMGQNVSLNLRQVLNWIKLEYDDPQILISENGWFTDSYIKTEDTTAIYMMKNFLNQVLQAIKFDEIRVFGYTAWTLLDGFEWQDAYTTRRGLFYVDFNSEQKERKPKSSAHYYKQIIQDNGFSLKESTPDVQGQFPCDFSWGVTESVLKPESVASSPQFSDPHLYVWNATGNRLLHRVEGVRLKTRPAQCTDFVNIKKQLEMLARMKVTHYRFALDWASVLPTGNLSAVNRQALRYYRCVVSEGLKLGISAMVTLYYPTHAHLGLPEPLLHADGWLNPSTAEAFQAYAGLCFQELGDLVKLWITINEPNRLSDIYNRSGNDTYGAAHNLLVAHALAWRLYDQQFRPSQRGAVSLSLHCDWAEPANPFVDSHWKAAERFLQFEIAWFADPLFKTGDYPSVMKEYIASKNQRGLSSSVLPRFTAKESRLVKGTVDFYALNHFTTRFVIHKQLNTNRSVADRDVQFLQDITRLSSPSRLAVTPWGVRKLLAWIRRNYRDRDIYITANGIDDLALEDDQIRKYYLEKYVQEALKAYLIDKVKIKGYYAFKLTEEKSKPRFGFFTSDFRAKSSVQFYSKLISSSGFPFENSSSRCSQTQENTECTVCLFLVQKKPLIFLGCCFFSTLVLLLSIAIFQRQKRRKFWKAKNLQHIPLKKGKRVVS

[2] = target: T2, huBeta_Klotho (1-507) (muBetaKLOTHO 506F-1045S) (human; murine, UniProt Q99N32 1-1043); test: flow cytometry, transfected HEK-293T
T2 construct: also called Chimera 2; Construct 2

[3] = target: T3, murine β-Klotho (murine, UniProt Q99N32 1-1043); test: flow cytometry, transfected HEK-293T
T3 construct: Full length (GenBank NP-112457), transiently expressed on HEK-293T cells; also called mu β-klotho; mouse β-Klotho
T3 sequence: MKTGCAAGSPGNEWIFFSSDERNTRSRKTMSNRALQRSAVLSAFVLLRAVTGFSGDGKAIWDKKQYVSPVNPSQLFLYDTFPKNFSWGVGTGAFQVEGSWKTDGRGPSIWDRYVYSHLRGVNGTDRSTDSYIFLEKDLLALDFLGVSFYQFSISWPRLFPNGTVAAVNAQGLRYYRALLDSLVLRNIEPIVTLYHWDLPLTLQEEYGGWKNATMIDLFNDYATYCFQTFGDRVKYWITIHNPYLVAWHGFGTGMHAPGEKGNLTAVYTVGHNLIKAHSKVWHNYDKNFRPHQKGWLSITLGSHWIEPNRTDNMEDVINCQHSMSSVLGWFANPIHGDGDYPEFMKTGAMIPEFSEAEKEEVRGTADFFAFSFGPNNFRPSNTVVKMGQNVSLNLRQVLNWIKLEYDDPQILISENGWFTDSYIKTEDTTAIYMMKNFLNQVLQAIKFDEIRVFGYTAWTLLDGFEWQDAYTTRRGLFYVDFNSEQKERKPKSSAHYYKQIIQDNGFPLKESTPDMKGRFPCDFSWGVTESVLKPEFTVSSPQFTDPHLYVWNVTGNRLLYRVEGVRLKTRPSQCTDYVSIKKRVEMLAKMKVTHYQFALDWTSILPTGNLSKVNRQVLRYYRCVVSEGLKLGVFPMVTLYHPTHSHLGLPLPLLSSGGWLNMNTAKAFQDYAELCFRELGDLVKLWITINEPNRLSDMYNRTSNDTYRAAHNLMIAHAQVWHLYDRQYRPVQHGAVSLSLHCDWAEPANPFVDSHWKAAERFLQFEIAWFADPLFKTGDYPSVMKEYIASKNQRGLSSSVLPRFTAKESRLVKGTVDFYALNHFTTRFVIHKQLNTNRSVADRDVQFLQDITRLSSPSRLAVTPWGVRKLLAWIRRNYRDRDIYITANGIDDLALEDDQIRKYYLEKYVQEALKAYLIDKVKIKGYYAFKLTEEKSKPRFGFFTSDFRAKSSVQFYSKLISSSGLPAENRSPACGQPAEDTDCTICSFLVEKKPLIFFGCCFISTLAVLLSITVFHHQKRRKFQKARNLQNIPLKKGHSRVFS

[4] = target: T4, huBeta_Klotho (1-633, 852-1044) (muBeta KLOTHO 632G-849Q) (human; murine, UniProt Q86Z14 1-1044); test: flow cytometry, transfected HEK-293T
T4 construct: also called Chimera 10; Construct 10

[5] = target: T5, huBeta_Klotho (1-736, 967-1044) (muBeta KLOTHO 735A-963S) (human; murine, UniProt Q86Z14 1-1044); test: flow cytometry, transfected HEK-293T
T5 construct: also called Chimera 11; Construct 11

[6] = target: T6, human FGFR1c (human, UniProt P11362 22-822); test: flow cytometry, transfected HEK293T
T6 construct: Full length (GenBank NP-075598), expressed on transfected 293T cells; also called huFGFR1c; FGFR1c alone

binding result [1]: no binding
binding result [2]: binds
binding result [3]: no binding
binding result [4]: binds
binding result [5]: binds
binding result [6]: no binding
B1: 54A1.1 (antibody, V domains shown)
VH: QVQLVQSGAEVKKPGASVKVSCKASGYTFTSYDINWVRQATGQGLEWMGWMNPHSGNTGYAQKFQGRVTMTRNTSINTAYMELSSLRSEDTAVYYCAKYNWNYGAFDFWGQGTMVTVSS
VL: DIQMAQSPSSLSASVGDRVTITCQASQDISIYLNWYQLKPGKAPKLLIYDVSNLETGVPSRFSGGGSGTDFTFTISSLQPEDIATYYCQQYDNLPLTFGPGTKVDIKR
